Measured values from patent publication US8673856B2 (Anygen Co., Ltd., priority 2006, dated 2014).
No end group written: not given here.

How the values were obtained:
[1] = target: T1, human N-type calcium channel (Homo sapiens, UniProt Q00975); type: cell-based
T1 construct: expressed in transfected cells; host or cells: HEK 293 (human embryonic kidney) cells

[2] = target: T1, human N-type calcium channel; type: cell-based; remark: listed apart in the source

## CKGTGKSCSRLMYNCCTGSCRSGKC-NH2 (CKGTGKSCSRLMYNCCTGSCRSGKC-NH2; ends and bridges not checked) [FVIA[I11L, A12M], FVIA with Ile11 and Ala12 mutated to Leu and Met]
[1]
  Calcium channel blocking activity: calcium channel blocking activity similar to FVIA
[2]
  Reversibility: significantly reduced reversibility
